Legend:
[1] = target: huLTBP1 proTGFβ1 (Homo sapiens, UniProt P01137+Q14766); test: Octet (BLI) binding, IgG captured on AHC tips, antigen at 100 nM; conditions: Table 9, cycle 3, IgG1-agly; for Hu LTBP1-proTGFβ1 Kon: 1:1 fit; for Hu LTBP1-proTGFβ1 Koff: 5-minute dissociation
Protocol: (§1) Suitable methods for in vitro binding assays to determine the parameters of binding kinetics include Bio-layer Interferometry (BLI)-based assays such as Octet, and surface plasmon resonance (SPR)-based assays, such as Biacore systems (see, for example: biophysics.bioc.cam.ac.uk/wp-content/uploads/2011/02/Biacore_assay_handbook.pdf).
(§2) The affinity of SR-AB10, SR-AB2 and SR-AB13 was measured by Octet assay. The protocol used to measure the affinity of the antibodies to the complexes provided herein is summarized below.
(§3) • 96 well black polypropylene plates • AHC Octet tips (anti-human IgG Fc capture tips) (FortdBio) • 10× kinetics buffer (FortdBio) (diluted to 1× in PBS) • reiner Bio-One 96-Well Half Area Microplates (VWR cat #82050-044) Procedure:
(§4) Notes: The volume within each well during an Octet experiment is 100 uL.
(§5) A shake speed of 1000 rpm is used for all assay steps.
(§6) Pre-Wet Tips: • Biosensors must be pre-wet in 1× kinetics buffer (lx KB) for at least 10 minutes before starting an experiment. This can be done inside the Octet or on the bench.
(§7) Loading: • Tips are baselined in 1× KB for 1 minute before loading. • AHC tips are loaded with antibody at a concentration of 1 μg/mL (˜7 nM) for 3 minutes. A limit is set so that loading will stop when any one sensor reaches a response of 1 nanometer. • Tips are baselined in buffer for 1 minute after loading. The antibody should not dissociate from the tips during this time.
(§8) Antigen Association: • TGFβ1 in complex with various presentation molecules was associated to the immobilized antibodies at a single concentration of 100 nM in 1× KB.
(§9) Antibody Dissociation: • Dissociation in 1×KB was performed for 3 minutes.
(§10) Data Analysis using ForteBio Data analysis software 8.2: • Processing: align Y axis to last 5 seconds of baseline, perform inter-step correction with align to dissociation, and perform Savitzky-Golay filtering. • Analysis: 1:1 fitting model is utilized. Fitting is local and full. […] Results:
(§11) LTBP complex-specific antibodies from the first round of affinity maturation/optimization (SR-AB14, SR-AB16, SR-AB17, SR-AB18, SR-AB19) were selected for a second round of affinity maturation/optimization (i.e., CDR-H3 mutagenesis as described herein) and particular progeny antibodies (SR-AB20, SR-AB21, SR-AB22, SR-AB23, SR-AB24, SR-AB25, SR-AB26, SR-AB27, SR-AB28, and SR-AB29) were assessed for their ability to bind various proTGFβl constructs. Binding affinities of the optimized antibodies were measured by Octet against human LTBP1-proTGFβI, human LTBP3-proTGFb1, mouse LTBP1-proTGFβ1, mouse LTBP3-proTGFb1, and GARP-proTGFβl complexes, essentially as described in Example 6. In brief, test antibodies were immobilized to the surface of anti-human Fc capture biosensors (AHC) (ForteBio®) and binding was then tested against the various TGFβ1 complexes at a single concentration of 100 nM to assess binding affinities. The antigens were allowed to associate for 3 minutes followed by a 5-minute dissociation. Kinetics buffer (ForteBio®) was used throughout the experiment, and KD was determined using a 1:1 fitting model for each antibody antigen pair.
Binding affinities of the optimized antibodies were measured by Octet against human LTBP1-proTGFβ1, human LTBP3-proTGFβ1, mouse LTBP1-proTGFβ1, mouse LTBP3-proTGFβ1, and GARP-proTGFβ1 complexes, essentially as described in Example 6. In brief, test antibodies were immobilized to the surface of anti-human Fc capture biosensors (AHC) (ForteBio®) and binding was then tested against the various TGFβ1 complexes at a single concentration of 100 nM to assess binding affinities. The antigens were allowed to associate for 3 minutes followed by a 5-minute dissociation. Kinetics buffer (ForteBio®) was used throughout the experiment, and KD was determined using a 1:1 fitting model for each antibody antigen pair. […]

[2] = target: huLTBP3 proTGFβ1 (Homo sapiens, UniProt P01137+Q9NS15); test: as above; conditions: Table 9, cycle 3, IgG1-agly; for Hu LTBP3-proTGFβ1 Kon: 1:1 fit; for Hu LTBP3-proTGFβ1 Koff: 5-minute dissociation
Protocol: as §1, §2, §3, §4, §5, §6, §7, §8, §9, §10, §11
Binding affinities of the optimized antibodies were measured by Octet against human LTBP1-proTGFβ1, human LTBP3-proTGFβ1, mouse LTBP1-proTGFβ1, mouse LTBP3-proTGFβ1, and GARP-proTGFβ1 complexes, essentially as described in Example 6. In brief, test antibodies were immobilized to the surface of anti-human Fc capture biosensors (AHC) (ForteBio®) and binding was then tested against the various TGFβ1 complexes at a single concentration of 100 nM to assess binding affinities. The antigens were allowed to associate for 3 minutes followed by a 5-minute dissociation. Kinetics buffer (ForteBio®) was used throughout the experiment, and KD was determined using a 1:1 fitting model for each antibody antigen pair.

[3] = tested on: proTGFβ1 presented by endogenous LTBP1/3 in LN229 cells; test: Endogenous LTBP caga assay: LN229 cells transfected with human proTGFβ1 only, CAGA12 luciferase reporter cells; format: cell-based; conditions: Table 20: protocol of Example 10 with Fabs (RefAb also as hIgG4), assay format not stated
proTGFβ1 presented by endogenous LTBP1/3 in LN229 cells, sequence (P01137 30-390): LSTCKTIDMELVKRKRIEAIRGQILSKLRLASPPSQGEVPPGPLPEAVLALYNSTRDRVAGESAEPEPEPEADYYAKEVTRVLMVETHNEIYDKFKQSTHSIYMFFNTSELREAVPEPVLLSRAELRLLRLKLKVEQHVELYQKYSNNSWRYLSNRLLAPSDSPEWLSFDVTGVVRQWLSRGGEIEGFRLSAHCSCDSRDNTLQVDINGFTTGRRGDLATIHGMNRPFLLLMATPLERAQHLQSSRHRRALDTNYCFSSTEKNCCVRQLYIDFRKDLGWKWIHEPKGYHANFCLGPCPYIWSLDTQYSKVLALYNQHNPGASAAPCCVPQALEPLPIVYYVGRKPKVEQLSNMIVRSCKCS

huLTBP3 proTGFβ1, sequence (P01137 30-390): as above
huLTBP3 proTGFβ1, sequence (Q9NS15 44-1303): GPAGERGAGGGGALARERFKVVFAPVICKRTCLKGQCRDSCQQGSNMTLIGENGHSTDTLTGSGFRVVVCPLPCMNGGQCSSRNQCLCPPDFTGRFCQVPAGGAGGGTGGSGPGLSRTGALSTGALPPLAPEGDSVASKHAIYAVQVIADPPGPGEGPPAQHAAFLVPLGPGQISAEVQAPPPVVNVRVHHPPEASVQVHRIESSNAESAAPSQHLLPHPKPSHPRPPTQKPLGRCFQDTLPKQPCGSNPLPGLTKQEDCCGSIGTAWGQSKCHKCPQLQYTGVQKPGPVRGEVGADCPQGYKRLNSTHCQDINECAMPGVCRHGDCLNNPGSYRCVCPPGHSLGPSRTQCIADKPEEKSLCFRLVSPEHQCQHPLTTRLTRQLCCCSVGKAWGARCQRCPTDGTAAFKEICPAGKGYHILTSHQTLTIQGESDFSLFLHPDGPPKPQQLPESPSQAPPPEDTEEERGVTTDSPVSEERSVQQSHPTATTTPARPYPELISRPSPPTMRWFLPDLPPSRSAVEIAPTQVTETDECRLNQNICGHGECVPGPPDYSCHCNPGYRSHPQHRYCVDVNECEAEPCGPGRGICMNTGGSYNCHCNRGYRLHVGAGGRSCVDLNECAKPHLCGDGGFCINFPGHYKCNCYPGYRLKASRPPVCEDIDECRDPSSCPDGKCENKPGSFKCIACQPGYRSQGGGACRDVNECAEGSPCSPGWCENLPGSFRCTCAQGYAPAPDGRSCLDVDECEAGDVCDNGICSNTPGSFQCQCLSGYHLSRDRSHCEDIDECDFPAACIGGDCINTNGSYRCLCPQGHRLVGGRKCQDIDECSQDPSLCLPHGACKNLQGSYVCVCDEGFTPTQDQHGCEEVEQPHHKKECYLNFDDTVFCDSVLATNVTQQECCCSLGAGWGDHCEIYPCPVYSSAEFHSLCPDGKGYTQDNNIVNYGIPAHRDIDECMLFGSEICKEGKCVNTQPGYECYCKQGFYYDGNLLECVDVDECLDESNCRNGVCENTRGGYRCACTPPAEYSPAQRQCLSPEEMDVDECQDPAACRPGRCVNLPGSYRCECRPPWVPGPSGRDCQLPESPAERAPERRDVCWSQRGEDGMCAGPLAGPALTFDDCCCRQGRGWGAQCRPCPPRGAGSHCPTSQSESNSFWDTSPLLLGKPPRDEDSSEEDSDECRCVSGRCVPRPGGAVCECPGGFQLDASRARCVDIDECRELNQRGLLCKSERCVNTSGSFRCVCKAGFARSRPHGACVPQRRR
huLTBP1 proTGFβ1, sequence (P01137 30-390): as the sequence (P01137 30-390) above
huLTBP1 proTGFβ1, sequence (Q14766 347-1721 limits assumed): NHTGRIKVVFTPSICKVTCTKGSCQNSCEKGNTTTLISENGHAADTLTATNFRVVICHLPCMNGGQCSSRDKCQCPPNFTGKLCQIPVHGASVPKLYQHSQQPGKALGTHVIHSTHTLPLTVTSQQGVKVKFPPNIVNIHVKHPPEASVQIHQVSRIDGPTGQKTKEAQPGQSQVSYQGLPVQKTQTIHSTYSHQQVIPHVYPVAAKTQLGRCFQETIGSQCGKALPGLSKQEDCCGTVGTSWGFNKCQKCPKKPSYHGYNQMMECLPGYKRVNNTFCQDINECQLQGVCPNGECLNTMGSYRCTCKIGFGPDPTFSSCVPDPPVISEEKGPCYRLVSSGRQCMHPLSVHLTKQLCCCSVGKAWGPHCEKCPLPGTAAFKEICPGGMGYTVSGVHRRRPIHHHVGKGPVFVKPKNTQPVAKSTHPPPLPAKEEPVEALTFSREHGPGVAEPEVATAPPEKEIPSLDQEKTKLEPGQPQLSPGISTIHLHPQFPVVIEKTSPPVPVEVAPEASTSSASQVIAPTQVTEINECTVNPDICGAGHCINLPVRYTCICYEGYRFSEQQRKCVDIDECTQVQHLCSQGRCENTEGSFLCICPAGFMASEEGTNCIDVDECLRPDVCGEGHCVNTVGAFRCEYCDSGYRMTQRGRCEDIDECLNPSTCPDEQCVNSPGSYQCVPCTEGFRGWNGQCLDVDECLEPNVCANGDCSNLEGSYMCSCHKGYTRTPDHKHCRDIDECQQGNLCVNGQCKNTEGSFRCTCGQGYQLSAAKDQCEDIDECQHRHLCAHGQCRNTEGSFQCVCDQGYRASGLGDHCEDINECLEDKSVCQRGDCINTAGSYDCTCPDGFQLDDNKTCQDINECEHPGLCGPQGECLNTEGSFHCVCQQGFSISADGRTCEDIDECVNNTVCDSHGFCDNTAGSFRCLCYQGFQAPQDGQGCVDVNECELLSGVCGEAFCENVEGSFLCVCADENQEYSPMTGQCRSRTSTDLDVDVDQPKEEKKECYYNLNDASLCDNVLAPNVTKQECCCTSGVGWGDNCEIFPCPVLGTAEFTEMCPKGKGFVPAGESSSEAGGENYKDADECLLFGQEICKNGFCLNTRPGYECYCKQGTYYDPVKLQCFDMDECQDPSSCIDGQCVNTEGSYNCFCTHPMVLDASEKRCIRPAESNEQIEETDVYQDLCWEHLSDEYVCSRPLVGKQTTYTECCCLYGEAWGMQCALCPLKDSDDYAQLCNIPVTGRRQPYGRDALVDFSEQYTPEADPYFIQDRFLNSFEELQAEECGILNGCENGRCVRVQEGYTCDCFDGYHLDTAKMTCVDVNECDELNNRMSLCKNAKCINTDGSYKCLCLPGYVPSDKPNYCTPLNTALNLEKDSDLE

Hu LTBP1-proTGFβ1 Kon [1] [M⁻¹ s⁻¹] | Hu LTBP1-proTGFβ1 Koff [1] [s⁻¹] | Hu LTBP3-proTGFβ1 Kon [2] [M⁻¹ s⁻¹] | Hu LTBP3-proTGFβ1 Koff [2] [s⁻¹] | IC50 [3] [nM] | Molecule
259000 | 6e-05 | 372000 | 6.68e-05 | – | SR-AB34: cycle 3 light chain-optimized antibody, lineage SR-AB22; CDRs SEQ ID NO: 130-135 (antibody, V domains shown) VH: QVQLVESGGGVVQPGRSLRLSCAASGFTFRSYVMHWVRQAPGKGLEWVAVISHEGSLKYYADSVKGRFTISRDNSKNTLYLQMNSLRAEDTAVYYCAVPRIAARRGGFGYWGQGTLVTVSS VL: NFMLTQPHSVSESPGKTVTISCTRSSGNIDNNYVQWYQQRPGSSPTTVIYEDNQRPSGVPDRFSGSIDSSSNSASLTISGLKTEDEADYYCQSYDYDAQGVVFGGGTKLTVL
– | – | – | – | 0.486 | SR-AB41 Fab (antibody, V domains shown) VH: QVQLVESGGGVVQPGRSLRLSCAASGFTFRSYVMHWVRQAPGKGLEWVAVISHEGSLKYYADSVKGRFTISRDNSKNTLYLQMNSLRAEDTAVYYCARPRIAARRGGFGYWGQGTLVTVSS VL: NFMLTQPHSVSESPGKTVTISCTRSSGNIDNNYVQWYQQRPGSSPTTVIYEDNQRPSGVPDRFSGSIDSSSNSASLTISGLKTEDEADYYCQSYDYDNQAVVFGGGTKLTVL
280000 | 6e-05 | 410000 | 6e-05 | – | SR-AB44: cycle 3 light chain-optimized antibody, lineage SR-AB23; CDRs SEQ ID NO: 178-183 (antibody, V domains shown) VH: QVQLVESGGGVVQPGRSLRLSCAASGFTFRSYVMHWVRQAPGKGLEWVAVISHEGSLKYYADSVKGRFTISRDNSKNTLYLQMNSLRAEDTAVYYCARPRIAARRGGFGYWGQGTLVTVSS VL: NFMLTQPHSVSESPGKTVTISCTRSHGNIDDNYVQWYQQRPGSSPTTVIYEDNVRPSGVPDRFSGSIDSSSNSASLTISGLKTEDEADYYCQSYDSDNQLVVFGGGTKLTVL
292000 | 6e-05 | 441000 | 6e-05 | – | SR-AB39: cycle 3 light chain-optimized antibody, lineage SR-AB22; CDRs SEQ ID NO: 148-153 (antibody, V domains shown) VH: QVQLVESGGGVVQPGRSLRLSCAASGFTFRSYVMHWVRQAPGKGLEWVAVISHEGSLKYYADSVKGRFTISRDNSKNTLYLQMNSLRAEDTAVYYCAVPRIAARRGGFGYWGQGTLVTVSS VL: NFMLTQPHSVSESPGKTVTISCTRSSGLIDDNYVQWYQQRPGSSPTTVIYEDAQRPSGVPDRFSGSIDSSSNSASLTISGLKTEDEADYYCQSYDHDEQGVVFGGGTKLTVL
310000 | 6e-05 | 491000 | 6e-05 | – | SR-AB45: cycle 3 light chain-optimized antibody, lineage SR-AB23; CDRs SEQ ID NO: 184-189 (antibody, V domains shown) VH: QVQLVESGGGVVQPGRSLRLSCAASGFTFRSYVMHWVRQAPGKGLEWVAVISHEGSLKYYADSVKGRFTISRDNSKNTLYLQMNSLRAEDTAVYYCARPRIAARRGGFGYWGQGTLVTVSS VL: NFMLTQPHSVSESPGKTVTISCTRSSGAIDDNYVQWYQQRPGSSPTTVIYEDFQRPSGVPDRFSGSIDSSSNSASLTISGLKTEDEADYYCQSYDDDLQGVVFGGGTKLTVL
– | – | – | – | 0.47 | SR-AB61 Fab (antibody, V domains shown) VH: QVQLVESGGGVVQPGRSLRLSCAASGFTFRSYVMHWVRQAPGKGLEWVAVISHEGSGKYYADSVKGRFTISRDNSKNTLYLQMNSLRAEDTAVYYCALPRIAARRGGFGTWGQGTLVTVSS VL: NFMLTQPHSVSESPGKTVTISCTRSSGNIDYNYVQWYQQRPGSSPTTVIYEDNVRPSGVPDRFSGSIDSSSNSASLTISGLKTEDEADYYCQGYDWDTQGVVFGGGTKLTVL
203000 | 6e-05 | 255000 | 6e-05 | – | SR-AB41: cycle 3 light chain-optimized antibody, lineage SR-AB23; CDRs SEQ ID NO: 160-165 (antibody, V domains shown) VH: QVQLVESGGGVVQPGRSLRLSCAASGFTFRSYVMHWVRQAPGKGLEWVAVISHEGSLKYYADSVKGRFTISRDNSKNTLYLQMNSLRAEDTAVYYCARPRIAARRGGFGYWGQGTLVTVSS VL: NFMLTQPHSVSESPGKTVTISCTRSSGNIDNNYVQWYQQRPGSSPTTVIYEDNQRPSGVPDRFSGSIDSSSNSASLTISGLKTEDEADYYCQSYDYDNQAVVFGGGTKLTVL
– | – | – | – | 0.495 | SR-AB46 Fab (antibody, V domains shown) VH: QVQLVESGGGVVQPGRSLRLSCAASGFTFRSYVMHWVRQAPGKGLEWVAVISHEGSGKYYADSVKGRFTISRDNSKNTLYLQMNSLRAEDTAVYYCARPRIAARRGGFGSWGQGTLVTVSS VL: NFMLTQPHSVSESPGKTVTISCTRSSGNIDYNYVQWYQQRPGSSPTTVIYEDNVRPSGVPDRFSGSIDSSSNSASLTISGLKTEDEADYYCQSYDSDNQRVVFGGGTKLTVL
327000 | 0.000117 | 502000 | 7.26e-05 | – | SR-AB38: cycle 3 light chain-optimized antibody, lineage SR-AB22; CDRs SEQ ID NO: 142-147 (antibody, V domains shown) VH: QVQLVESGGGVVQPGRSLRLSCAASGFTFRSYVMHWVRQAPGKGLEWVAVISHEGSLKYYADSVKGRFTISRDNSKNTLYLQMNSLRAEDTAVYYCAVPRIAARRGGFGYWGQGTLVTVSS VL: NFMLTQPHSVSESPGKTVTISCTRSSGSIDNNYVQWYQQRPGSSPTTVIYEDFIRPSGVPDRFSGSIDSSSNSASLTISGLKTEDEADYYCQSYDDDLQGVVFGGGTKLTVL
360000 | 0.000118 | 545000 | 7.58e-05 | – | SR-AB37: cycle 3 light chain-optimized antibody, lineage SR-AB22; CDRs SEQ ID NO: 136-141 (antibody, V domains shown) VH: QVQLVESGGGVVQPGRSLRLSCAASGFTFRSYVMHWVRQAPGKGLEWVAVISHEGSLKYYADSVKGRFTISRDNSKNTLYLQMNSLRAEDTAVYYCAVPRIAARRGGFGYWGQGTLVTVSS VL: NFMLTQPHSVSESPGKTVTISCTRSSGLIDDNYVQWYQQRPGSSPTTVIYEDNQRPSGVPDRFSGSIDSSSNSASLTISGLKTEDEADYYCQSYDSDLQRVVFGGGTKLTVL
